Data published in IntAct's records for PubMed 19369211.

B1: Partner and localizer of BRCA2 (Homo sapiens), Q86YC2 (parent)
chain: MDEPPGKPLSCEEKEKLKEKLAFLKREYSKTLARLQRAQRAEKIKHSIKKTVEEQDCLSQQDLSPQLKHSEPKNKICVYDKLHIKTHLDEETGEKTSITLDVGPESFNPGDGPGGLPIQRTDDTQEHFPHRVSDPSGEQKQKLPSRRKKQQKRTFISQERDCVFGTDSLRLSGKRLKEQEEISSKNPARSPVTEIRTHLLSLKSELPDSPEPVTEINEDSVLIPPTAQPEKGVDTFLRRPNFTRATTVPLQTLSDSGSSQHLEHIPPKGSSELTTHDLKNIRFTSPVSLEAQGKKMTVSTDNLLVNKAISKSGQLPTSSNLEANISCSLNELTYNNLPANENQNLKEQNQTEKSLKSPSDTLDGRNENLQESEILSQPKSLSLEATSPLSAEKHSCTVPEGLLFPAEYYVRTTRSMSNCQRKVAVEAVIQSHLDVKKKGFKNKNKDASKNLNLSNEETDQSEIRMSGTCTGQPSSRTSQKLLSLTKVSSPAGPTEDNDLSRKAVAQAPGRRYTGKRKSACTPASDHCEPLLPTSSLSIVNRSKEEVTSHKYQHEKLFIQVKGKKSRHQKEDSLSWSNSAYLSLDDDAFTAPFHRDGMLSLKQLLSFLSITDFQLPDEDFGPLKLEKVKSCSEKPVEPFESKMFGERHLKEGSCIFPEELSPKRMDTEMEDLEEDLIVLPGKSHPKRPNSQSQHTKTGLSSSILLYTPLNTVAPDDNDRPTTDMCSPAFPILGTTPAFGPQGSYEKASTEVAGRTCCTPQLAHLKDSVCLASDTKQFDSSGSPAKPHTTLQVSGRQGQPTCDCDSVPPGTPPPIESFTFKENQLCRNTCQELHKHSVEQTETAELPASDSINPGNLQLVSELKNPSGSCSVDVSAMFWERAGCKEPCIITACEDVVSLWKALDAWQWEKLYTWHFAEVPVLQIVPVPDVYNLVCVALGNLEIREIRALFCSSDDESEKQVLLKSGNIKAVLGLTKRRLVSSSGTLSDQQVEVMTFAEDGGGKENQFLMPPEETILTFAEVQGMQEALLGTTIMNNIVIWNLKTGQLLKKMHIDDSYQASVCHKAYSEMGLLFIVLSHPCAKESESLRSPVFQLIVINPKTTLSVGVMLYCLPPGQAGRFLEGDVKDHCAAAILTSGTIAIWDLLLGQCTALLPPVSDQHWSFVKWSGTDSHLLAGQKDGNIFVYHYS

Variants of: B1
Details: with brca1_human BRCA1, P38398
Sequence of brca1_human BRCA1, P38398 (P38398 whole entry, looked up): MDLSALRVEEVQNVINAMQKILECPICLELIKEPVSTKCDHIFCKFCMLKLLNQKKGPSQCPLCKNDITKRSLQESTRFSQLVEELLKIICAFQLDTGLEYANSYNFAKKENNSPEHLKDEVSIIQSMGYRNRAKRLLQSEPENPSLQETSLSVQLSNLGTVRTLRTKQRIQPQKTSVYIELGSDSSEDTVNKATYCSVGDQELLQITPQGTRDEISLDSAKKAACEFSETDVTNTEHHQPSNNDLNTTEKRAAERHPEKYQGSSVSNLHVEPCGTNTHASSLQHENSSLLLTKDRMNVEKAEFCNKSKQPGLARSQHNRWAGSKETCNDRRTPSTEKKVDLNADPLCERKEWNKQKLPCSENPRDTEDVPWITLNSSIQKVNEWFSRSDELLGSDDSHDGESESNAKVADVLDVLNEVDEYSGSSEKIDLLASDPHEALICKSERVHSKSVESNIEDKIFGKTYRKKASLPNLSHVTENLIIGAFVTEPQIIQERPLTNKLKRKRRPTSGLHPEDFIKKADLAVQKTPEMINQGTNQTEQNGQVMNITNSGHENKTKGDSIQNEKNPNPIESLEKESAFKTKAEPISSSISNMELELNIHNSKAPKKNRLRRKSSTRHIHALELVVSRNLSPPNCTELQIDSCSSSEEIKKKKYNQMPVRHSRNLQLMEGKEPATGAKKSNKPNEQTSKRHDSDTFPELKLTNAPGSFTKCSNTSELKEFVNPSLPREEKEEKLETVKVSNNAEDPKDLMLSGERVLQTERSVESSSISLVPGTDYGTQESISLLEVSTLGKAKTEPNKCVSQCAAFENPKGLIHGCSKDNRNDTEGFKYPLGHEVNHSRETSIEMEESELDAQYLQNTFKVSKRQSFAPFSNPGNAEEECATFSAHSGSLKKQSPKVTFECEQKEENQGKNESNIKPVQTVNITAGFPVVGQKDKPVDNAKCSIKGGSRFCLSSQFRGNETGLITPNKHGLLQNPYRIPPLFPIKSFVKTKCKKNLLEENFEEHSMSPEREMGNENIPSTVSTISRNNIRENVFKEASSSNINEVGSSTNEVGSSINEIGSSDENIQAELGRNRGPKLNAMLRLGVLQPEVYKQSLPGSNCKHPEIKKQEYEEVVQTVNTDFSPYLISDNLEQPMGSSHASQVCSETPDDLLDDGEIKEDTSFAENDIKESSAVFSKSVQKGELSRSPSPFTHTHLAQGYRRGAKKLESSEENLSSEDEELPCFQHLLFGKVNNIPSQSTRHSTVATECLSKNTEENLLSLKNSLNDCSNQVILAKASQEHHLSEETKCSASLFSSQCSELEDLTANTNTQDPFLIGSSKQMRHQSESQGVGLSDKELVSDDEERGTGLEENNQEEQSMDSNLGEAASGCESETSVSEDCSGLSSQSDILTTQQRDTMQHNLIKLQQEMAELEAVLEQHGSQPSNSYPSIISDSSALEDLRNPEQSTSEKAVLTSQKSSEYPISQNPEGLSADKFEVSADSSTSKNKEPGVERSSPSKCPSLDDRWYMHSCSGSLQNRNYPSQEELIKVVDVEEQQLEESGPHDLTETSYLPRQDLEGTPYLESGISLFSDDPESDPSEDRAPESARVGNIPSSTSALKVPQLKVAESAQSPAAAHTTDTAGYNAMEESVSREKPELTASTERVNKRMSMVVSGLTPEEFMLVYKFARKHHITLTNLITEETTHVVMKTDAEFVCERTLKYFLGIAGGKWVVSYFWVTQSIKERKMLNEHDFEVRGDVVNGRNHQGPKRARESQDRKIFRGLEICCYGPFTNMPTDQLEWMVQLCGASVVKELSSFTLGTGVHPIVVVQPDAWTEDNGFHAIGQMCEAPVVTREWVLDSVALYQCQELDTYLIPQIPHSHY

Variant | effect of a mutation on the interaction
L21A | disrupting interaction
Y28A | disrupting interaction
